experiment: soluble on expression in E. coli; label from the status in PepcDB or PDB records

Row | Sequence | soluble on expression in E. coli
1 | MESRESSKDRLLILPSMGESYTEYVDSYLNLELLERGERETPIFLESLTRQLTQKIYELIKTKSLTADTLQQISDKYDGVVAENKLLFLQRQYYVDDEGNVRDGRNNDKIYCEPKHVYDMVMATHLMNKHLRGKTLHSFLFSHFANISHAIIDWVQQFCSKCNKKGKIKPLKEYKR | soluble
2 | METALYLLPVTLGDTPLEQVLPSYNTEIIRGIRHFIVEDVRSARRFLKKVDREIDIDSLTFYPLNKHTSPEDISGYLKPLAGGASMGVISEAGCPAVADPGADVVAIAQRQKLKVIPLVGPSSIILSVMASGFNGQSFAFHGYLPIEPGERAKKLKTLEQRVYAESQTQLFIETPYRNHKMIEDILQNCRPQTKLCIAANITCEGEFIQTRTVKDWKGHIPELSKIPCIFLLYKLEHHHHHH | soluble
3 | METASKRPKSGAAKKPAAAKARGDGPSYLDGQLLIAMPVMEDERFARSVIYICAHSSEGAMGIIVNRPAGSIDFPELLVQLDIVEKPEQIKLPDHAESMKVLRGGPVETGRGFVLHSSDFFIKDATLPIDDGICLTATVDILKAIAGGTGPKHAILALGYAGWAPGQLENEIQENGWLHCDADADLIFGDDIEEKYDRALHKLGIEPGMLSAEAGHALEHHHHHH | soluble
4 | METEAIDGYITCDNELSPEREHSNMAIDLTSSTPNGQHASPSHMTSTNSVKLEMQSDEECDRKPLSREDEIRGHDEGSSLEEPLIESSEVADNRKVQELQGEGGIRLPNGERPFHCNQCGASFTQKGNLLRHIKLHSGEKPFKCPFCSYACRRRDALTGHLRTHSVGKPHKCNYCGRSYKQRSSLEEHKERCHNYLQNVSMEAAGQVMSHHVPPMEDCKEQEPIMDNNISLVPFERPAVIEKLTGNMGKRKSSTPQKFVGEKLMRFSYPDIHFDMNLTYEKEAELMQSHMMDQAINNAITYLGAEALHPLMQHPPSTIAEVAPVISSAYSQVYHPNRIERPISRETADSHENNMDGPISLIRPKSRPQEREASPSNSCLDSTDSESSHDDHQSYQGHPALNPKRKQSPAYMKEDVKALDTTKAPKGSLKDIYKVFNGEGEQIRAFKCEHCRVLFLDHVMYTIHMGCHGYRDPLECNICGYRSQDRYEFSSHIVRGEHTFH | soluble
5 | METEEWFFKGISRKDAERQLLAPGNMLGSFMIRDSETTKGSYSLSVRDYDPRQGDTVKHYKIRTLDNGGFYISPRSTFSTLQELVDHYKKGNDGLCQKLSVPCMSSK | soluble
6 | METFQKIKELVVVPERQSVILSVKQDLVNPLQDIAQQMAQYVTREYPLTLIDGVKLTPALEEQAFATYQTVQNLLTLKASVEDIAEALDVLEGGLTMQKVSNAEARAKAYITALNGISLWALLQAVKNLVRGEAKGMSTTFVPSCADLAQYCRDLENRLSGTAEKVFIAVENSRNLALGGKRISFMRIGKPCEELHGNLSSKAA | not soluble
7 | METKCELNNTKKVANAFGLNEEDTNLLINAVDLDIKNNMQEISSELQQSEQSKQKQLGTTLQNLAKQNRIIK | not soluble
8 | METLLTQILDRLDQLHSSVGALTSDVNEMKNQLNKIEARAGSIEERVNSIEARVDSIESRVNNIEANMATKDELAELRSKVDDIEAKMATKDELAELRSTVNGLQSNVNEIQAKMATKEELAELRSKVNELQFKVNELQSNVNEIQAKMATKDDLVPIRQAVMEIDQIVKRIEVNQERHEHILAILSKRSIEHEASIASLRQAQ | not soluble
9 | METNALDVNKQSWDQAAPRFFARNPLPEYGPLAPSEEELHLFGDVDRLKVLEIGCGSGHSLKYLDEKQAGELWGIDLSTKQIEAAQTVLKDSKAPVTLFESPMEVNPGLPTDYFDIVFSIYALGWTTNLTKTLENVYRYLKPGGSFIFSWEHPMYNRVRQHQHGLTVDKSYHEEGAYAHEAWSSPAIMQQYRLSTYLNHLIDHGFKVERVIEDVCLADAQKHTNGWYGYEKAQMIPTTLIIKCLKQLEHHHHHH | not soluble
10 | METVQLRNPPRRQLKKLDEDSLTKQPEEVFDVLEKLGEGSYGSVYKAIHKETGQIVAIKQVPVESDLQEIIKEISIMQQCDSPHVVKYYGSYFKNTDLWIVMEYCGAGSVSDIIRLRNKTLTEDEIATILQSTLKGLEYLHFMRKIHRDIKAGNILLNTEGHAKLADFGVAGQLTDTMAKRNTVIGTPFWMAPEVIQEIGYNCVADIWSLGITAIEMAEGKPPYADIHPMRAIFMIPTNPPPTFRKPELWSDNFTDFVKQCLVKSPEQRATATQLLQHPFVRSAKGVSILRDLINEAMDVKLKRQESQQREMDQDDEENSEEDEMDSGTMVRAVGDEMGTVRVASTMTDGANTMIEHDDTLPSQLGTMVINAEDEEEEG | soluble
11 | MEVKYGLHPTLGEHGERELLALQKVDYPKGDVKAQAKHTARTLLECYNCHSLGEYNTLLNLYNITVYEVRGSVDGKEYHGIMYGALDDNGQQVGTPFKSSKFGKVFGYEALQKKFAASAEKVKKDNLPERLEHHHHHH | not soluble
12 | MEWAAKKTNSLTSSSERTWKANLLVPVEDPRELMGTFDFLRDITYPKGSVKLLGLAGNTDKENLLSQLPSISEGFQEEGVFSSWTIIDTAEFEENLVVGMEALTGSFFRPSILFLRLPENRDRDEEIREIIRKASMYRMGVLLFSKHPQAGLGRQNLINLWIENRGLDWDISMELGNMDLALLIAYKLKSNWKASLSFMTFAPTAIQAQAAENFLQSLAELARIPNVKMQVLRENPIKSSKLPFASLHIFSLDPNPDLDLARHLMEKAGSSCIFALDSGEENALALLEHHHHHH | soluble
13 | MEYCRLDGDTGRLRTEIKHPRLLLFNPGHEMVPEIIGKKPYVPPPVVRSMMRDLGLLPAWLTKSEQDFVFCPEKTLPIPDTHPLKPEARLLQIPDTALPLNDYTLDMWGQSPVWLAALQHRFLWLSTVSAPYYPHELYERSHRCEAARCLEAIGHSEMAAHWFTSINDFLKERYHCFPPDSALLAKLPSSSSGRGLIWLSSSPTDDEIDLLTKALRRAGSFSVEPVLDVRQDWAAEFYSNGKGELYFVGWSRFDTNRWGAYLGNRLATQTDLVAELTQTVGAQAHEEAIASVKDYLRER | not soluble
14 | MEYDAFITNQLRGAQNQSSGLTTRYEQMSKIDNLLADKSSSLSGSLQSFFTSLQTLVSNAEDPAARQALIGKAEGLVNQFKTTDQYLRDQDKQVNIAIGSSVAQINNYAKQIANLNDQISRMTGVGAGASPNDLLDQRDQLVSELNKIVGVEVSVQDGGTYNLTMANGYTLVQGSTARQLAAVPSSADPTRTTVAYVDEAAGNIEIPEKLLNTGSLGGLLTFRSQDLDQTRNTLGQLALAFADAFNAQHTKGYDADGNKGKDFFSIGSPVVYSNSNNADKTVSLTAKVVDSTKVQATDYKIVFDGTDWQVTRTADNTTFTATKDADGKLEIDGLKVTVGTGAQKNDSFLLKPVSNAIVDMNVKVTNEAEIAMASESKLDPDVDTGDSDNRNGQALLDLQNSNVVGGNKTFNDAYATLVSDVGNKTSTLKTSSTTQANVVKQLYKQQQSVSGVNLDEEYGNLQR | soluble
15 | MEYSDIRDRILLATLPNVPFDGWSGKALRLGAESAGFDREAADRAFPGGPAEAVGHFIDLANRMMEADLGARDLSGLKLPEKIHLAIKLRLERWAGDREAVRRGLALLSLPGHARLSLKSTYATVDGIWHAVGDRSVDFSFYTKRAELAAIYGATLLVWLEDTSEESAETWAFLDRRLEGVIRLRKARAKLRERMTHLPTLPRLLNPLDLVRKPFGLMRSMRMRLEHHHHHH | soluble
16 | MFAMTSSAQSPLQQLGGTVVLAGAGKMGGALLTGWLAQGLDGGDVVVIEPHPTEEIAALSARGVRLNASAGDVGAVSTLVVAVKPQMFAEAAAALRGYVGPSTLVVSIMAGKPIAALSEQLGGHVVRAMPNTPAAIGRGITVAVAAGNVTAAQRGIADALLRATGGVEWVDDEALIDAVTAVSGSGPAYVFLLAEELARAGVEAGLPEGLAMTLARATVAGSGELLHRSDLDAATLRKNVTSPGGTTAAALEVLMANDGFRPLLTRAVAAATKRSKELAKAAALEHHHHHH | soluble
17 | MFEVPITLTNRKFAQRRKLKYQYINYISRRFDRISKKSTTTDSLPTPENSAAENNDEEEGQNSEAGTYRRSVLQQKKRRRERHWRSVVGEIYSTTESETDSQEEETEEGGEHDTGIDKEDSDEERKFWKKYEKPEKSFEIWRTVSSQNKQPINKQKMTYHNFKKIEKIPLRKMEIPLLHCTKENKLYFQSISRGLEPLKTSTSEVRNYRTRHIVTLTDLLHLNVSRHNWSLAYKIFATLIRIPGVQIKSLWGIGVEILDNLSNSSSGLDFLQWMCQIYSSKSRFVQNINYRSIVPPFQTGSRTHTAKFAITYLWSSLINCQKSMEPSSNIIDKPFDTENDLLQELIDKISEWVLTPPFMEDAEVWFIYASCHLLKADTLSRQFVNDNKNNDLIGLDRDIKINQVIKHIHYVRTFLKICLDKGGFAVPSRLIENQLKSFESRLYGEAQDIQERDVANVYDSIDNSSVENSFGDVYETNAEFLDTQLMDLSPEDNGLDEMHYSDEDSSE | not soluble
18 | MFFQSIYQMMSAGTDLNINIRRTDGKLSVAVIPKRTTLKDEAGQAIVPLILNGTPMELDGQFLQIITTPLQKAQGILTNLETFEQQARLAATQGKAAGTANDKKTKEAREKQEKMEKLLKRAEEAFTAGRYSEATTCFRQAKVLADTDRQKQIEARIQEVQKESSQGCLFPETDTQPLPQQPPANGTANGNRPDGQMRMFTSQPPQQPVQQAIPQPVQQPVPRPQIVQPQPVPQYYPGTPQPQPMYEGYCRNPANGSPQQTAEQPQTYFLQPGGQYPQTQPWQQPQPVPLQPQATVIQTTRENTGREYQSPPQPAAEALTFDKDDESDRELLREDPYAEYIDFPQECRMKDETQAELICC | not soluble
19 | MFFSALKSFLSRYITVWRNVWAVRDQLKPPKRTAEEQAFLPAHLELTDTPVSAAPKWAARFIMAFALLALLWSWFGKIDIVAAASGKTVSGGRSKTIQPLETAVVKAVHVRDGQHVKQGETLAELEAVGTDSDVVQSEQALQAAQLSKLRYEAVLAALESRTVPHIDMAQARSLGLSDADVQSAQVLAQHQYQAWAAQDAQLQSALRGHQAELQSAKAQEQKLVSVGAIEQQKTADYRRLRADNFISEHAFLEQQSKSVSNWNDLESTRGQMRQIQAAIAQAEQNRVLNTQNLKRDTLDALRQANEQIDQYRGQTDKAKQRQQLMTIQSPADGTVQELATYTVGGVVQAAQKMMVIAPDDDKMDVEVLVLNKDIGFVEQGQDAVVKIESFPYTRYGYLTGKVKSVSHDAVSHEQLGLVYTAVVSLDKHTLNIDGKAVNLTAGMNVTAEIKTGKRRVLDYLLSPLQTKLDESFRER | not soluble
20 | MFGLPMYNVWRAEQAGKAEFSKAEQNRRIKIEEAKANLEAEKLNAKAEIERAKGAAEAIRIENNSLTPTYIQYLWVRQQGSLNDKTVIYIPTEANLPLLEAGRTAGGLKRAECPTE | not soluble
21 | MFGYPGGAVLDIYDALHTVGGIDHVLVRHEQAAVHMADGLARATGDVGVVLVTSGPGATNAITGIATAYMDSIPLVILSGQVATSLIGYDAFQECDMVGISRPVVKHSFLVKQTEDIPLVLKKAFWLAASGRPGPVVVDLPKDILNPAKKMPYAWPETVSMRSYNPTTSGHKGQIKRALQTLASAKKPVVYVGGGAISAACYAPLRHIIETFNLPVVSSLMGLGAFPATHRQSLGMLGMHGTYEANMTMHNADVIFAVGVRFDDRTTNNLAKYCPNATVLHIDIDPTSISKTVNADIPVVGDARLVLEQMLELLAQDAPSQPQDDIRDWWQQIESWRARQCLKYDAESESIKPQAVIETLWRLTKGDAYVTSDVGQHQMFAALYYPFDKPRRWINSGGLGTMGFGLPAALGVKMALPKEMVVCVTGDGSIQMNIQELSTALQYELPVLVLNLNNRYLGMVKQWQDMIYSGRHSQSYMQSLPDFVRLAEAYGHVGLQINRPDELESKLSEALEHVRNNRLVFVDVTVDGSEHVYPMQIRGGGMDEMWLSKTERT | not soluble

From the DeepSol protein solubility set
